Consider 1 molecule from PMC5666746.

The target in the test is recombinant extra-cellular domain sequence of DR5 (sDR5) protein (human). Description: BLI; ForteBio Octet QKe; biotinylated sDR5 loaded on streptavidin sensors at 1 μM; scFv at two-fold serial dilutions 93.75-6000 nM in SD Buffer (PBS, pH 7.4, 0.02% Tween 20, 0.1% BSA); association 5 min, dissociation 10 min. A general note: BLI is a label-free optical method that tracks binding on a fibre tip over time.
Chain of recombinant extra-cellular domain sequence of DR5 (sDR5) protein (human) (O14763 whole entry, the tested form may be a part): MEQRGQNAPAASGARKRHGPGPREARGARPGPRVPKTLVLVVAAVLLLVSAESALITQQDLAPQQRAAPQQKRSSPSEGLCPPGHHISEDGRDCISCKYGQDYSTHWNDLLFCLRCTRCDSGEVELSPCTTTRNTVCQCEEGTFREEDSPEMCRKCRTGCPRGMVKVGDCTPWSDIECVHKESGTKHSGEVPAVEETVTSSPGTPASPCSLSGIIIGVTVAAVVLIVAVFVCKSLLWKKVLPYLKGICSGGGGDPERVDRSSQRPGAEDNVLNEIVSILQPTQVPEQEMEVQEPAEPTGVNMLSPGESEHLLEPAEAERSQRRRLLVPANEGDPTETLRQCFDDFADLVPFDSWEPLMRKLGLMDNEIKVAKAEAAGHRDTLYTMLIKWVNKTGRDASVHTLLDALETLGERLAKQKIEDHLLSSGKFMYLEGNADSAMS

B1: TR2-3, fully human agonistic anti-DR5 single chain fragment variable (scFv) antibody (scFv)
scFv: QVQLQESGPGLVKPSGTLSLTCAVSGGSISSSNWWSWVRQPPGKGLEWIGEIYHSGSTNYNPSLKSRVTISVDKSKNQFSLKLSSVTAADTAVYYCARGAAAGTANDAFDIWGQGTMVTVSSGGGGSGGGGSGGGGSETTLTQSPGILSLSPGERASLSCRASQSVPHNYLAWYQQKPGQAPRLLIYGASNRATGIPDRFSGSGSETDFTLTVTRLAPEDFAVYYCQQYGRSLTFGGGTKVEIKR
In general, Kd refers to the equilibrium constant for the complex coming apart. By koff is commonly meant a measure of how fast the partners let go of each other. As a reminder, the kon is the rate constant with which the complex forms. As to B1, the equilibrium dissociation constant (Kd) amounted to 126 nM, the dissociation rate constant (koff) came out at 0.00144 s⁻¹ and the kon came to 11500 M⁻¹ s⁻¹.
